From patent US20140120128A1

Legend:
Assay in all cases: cell-based or functional assay
[1] = biological target: human TLR2 expressed on HEK293 cells (human) (UniProt O60603)
[2] = biological target: human TLR5 expressed on HEK293 cells (human) (UniProt O60602)
[3] = biological target: T1, human TLR8 expressed on HEK293 cells (human) (UniProt Q9NR97)
T1 sequence: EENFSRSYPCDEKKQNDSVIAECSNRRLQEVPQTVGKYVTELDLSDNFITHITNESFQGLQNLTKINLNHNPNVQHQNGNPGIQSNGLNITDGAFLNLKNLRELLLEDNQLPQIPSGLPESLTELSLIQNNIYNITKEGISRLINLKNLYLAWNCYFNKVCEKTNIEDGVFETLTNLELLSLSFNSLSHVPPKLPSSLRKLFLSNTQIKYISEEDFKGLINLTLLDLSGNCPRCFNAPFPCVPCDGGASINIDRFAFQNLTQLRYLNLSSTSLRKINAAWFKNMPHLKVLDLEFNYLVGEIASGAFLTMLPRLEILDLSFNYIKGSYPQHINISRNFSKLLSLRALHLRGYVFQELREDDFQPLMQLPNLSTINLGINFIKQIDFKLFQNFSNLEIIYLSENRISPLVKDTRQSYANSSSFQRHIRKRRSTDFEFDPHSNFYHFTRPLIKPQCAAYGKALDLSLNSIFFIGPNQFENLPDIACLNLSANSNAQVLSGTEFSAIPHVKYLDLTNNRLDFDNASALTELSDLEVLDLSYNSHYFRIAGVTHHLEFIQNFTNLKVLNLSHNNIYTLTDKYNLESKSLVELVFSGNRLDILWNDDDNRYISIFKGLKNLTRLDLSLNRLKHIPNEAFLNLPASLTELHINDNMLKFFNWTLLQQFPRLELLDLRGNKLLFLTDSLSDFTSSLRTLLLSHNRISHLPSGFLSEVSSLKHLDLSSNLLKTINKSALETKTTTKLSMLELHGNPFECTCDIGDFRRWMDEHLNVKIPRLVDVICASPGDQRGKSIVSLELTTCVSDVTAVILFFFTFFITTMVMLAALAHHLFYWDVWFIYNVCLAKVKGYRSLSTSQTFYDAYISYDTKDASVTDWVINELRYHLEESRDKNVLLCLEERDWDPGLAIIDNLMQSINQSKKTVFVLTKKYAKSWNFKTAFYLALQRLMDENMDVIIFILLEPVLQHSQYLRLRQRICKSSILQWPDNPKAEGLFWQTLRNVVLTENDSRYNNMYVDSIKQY

[4] = biological target: human TLR4 (MD2-CD14) expressed on HEK293 cells (human) (UniProt O00206)
Chain of human TLR4 (MD2-CD14) expressed on HEK293 cells (human) (O00206 24-839 limits assumed, chain 1 of 3): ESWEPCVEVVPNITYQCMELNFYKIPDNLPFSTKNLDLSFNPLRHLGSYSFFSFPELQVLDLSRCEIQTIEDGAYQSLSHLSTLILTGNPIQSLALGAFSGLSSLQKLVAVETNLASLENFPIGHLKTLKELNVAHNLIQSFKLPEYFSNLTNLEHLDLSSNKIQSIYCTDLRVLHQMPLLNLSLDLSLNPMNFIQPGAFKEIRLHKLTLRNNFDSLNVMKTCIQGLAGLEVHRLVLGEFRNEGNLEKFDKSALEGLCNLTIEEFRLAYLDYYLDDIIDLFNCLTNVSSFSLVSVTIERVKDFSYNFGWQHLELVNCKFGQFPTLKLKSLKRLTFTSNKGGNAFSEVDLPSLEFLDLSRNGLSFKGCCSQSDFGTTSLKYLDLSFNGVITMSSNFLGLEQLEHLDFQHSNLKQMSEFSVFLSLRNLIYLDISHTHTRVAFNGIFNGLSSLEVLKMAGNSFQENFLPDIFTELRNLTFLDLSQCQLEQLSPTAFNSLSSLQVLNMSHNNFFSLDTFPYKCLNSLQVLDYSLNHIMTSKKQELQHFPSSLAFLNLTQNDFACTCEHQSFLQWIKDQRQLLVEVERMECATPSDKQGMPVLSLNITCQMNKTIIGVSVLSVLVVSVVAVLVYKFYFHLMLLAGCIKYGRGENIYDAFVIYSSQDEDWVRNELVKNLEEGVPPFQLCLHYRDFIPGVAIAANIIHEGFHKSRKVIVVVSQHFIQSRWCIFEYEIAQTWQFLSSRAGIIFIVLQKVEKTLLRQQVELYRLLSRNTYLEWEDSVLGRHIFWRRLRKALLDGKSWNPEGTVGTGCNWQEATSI
Chain of human TLR4 (MD2-CD14) expressed on HEK293 cells (human) (Q9Y6Y9 19-160 limits assumed, chain 2 of 3, further chain): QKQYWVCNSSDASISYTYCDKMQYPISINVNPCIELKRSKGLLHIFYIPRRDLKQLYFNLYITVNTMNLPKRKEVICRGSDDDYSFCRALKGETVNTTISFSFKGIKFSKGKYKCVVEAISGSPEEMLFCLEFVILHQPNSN
Chain of human TLR4 (MD2-CD14) expressed on HEK293 cells (human) (P08571 20-345 limits assumed, chain 3 of 3, further chain): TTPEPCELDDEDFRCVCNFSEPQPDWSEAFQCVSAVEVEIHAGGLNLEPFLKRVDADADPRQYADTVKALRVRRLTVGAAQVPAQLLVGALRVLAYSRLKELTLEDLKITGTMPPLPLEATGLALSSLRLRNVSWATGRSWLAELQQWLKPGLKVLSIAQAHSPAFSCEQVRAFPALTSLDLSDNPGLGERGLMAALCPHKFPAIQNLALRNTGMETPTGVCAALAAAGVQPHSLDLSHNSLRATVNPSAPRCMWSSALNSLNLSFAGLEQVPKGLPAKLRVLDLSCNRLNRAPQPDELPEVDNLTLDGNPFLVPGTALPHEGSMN

[5] = biological target: human TLR7 expressed on HEK293 cells (human) (UniProt Q9NYK1)
Chain of human TLR7 expressed on HEK293 cells (human) (Q9NYK1 27-1049): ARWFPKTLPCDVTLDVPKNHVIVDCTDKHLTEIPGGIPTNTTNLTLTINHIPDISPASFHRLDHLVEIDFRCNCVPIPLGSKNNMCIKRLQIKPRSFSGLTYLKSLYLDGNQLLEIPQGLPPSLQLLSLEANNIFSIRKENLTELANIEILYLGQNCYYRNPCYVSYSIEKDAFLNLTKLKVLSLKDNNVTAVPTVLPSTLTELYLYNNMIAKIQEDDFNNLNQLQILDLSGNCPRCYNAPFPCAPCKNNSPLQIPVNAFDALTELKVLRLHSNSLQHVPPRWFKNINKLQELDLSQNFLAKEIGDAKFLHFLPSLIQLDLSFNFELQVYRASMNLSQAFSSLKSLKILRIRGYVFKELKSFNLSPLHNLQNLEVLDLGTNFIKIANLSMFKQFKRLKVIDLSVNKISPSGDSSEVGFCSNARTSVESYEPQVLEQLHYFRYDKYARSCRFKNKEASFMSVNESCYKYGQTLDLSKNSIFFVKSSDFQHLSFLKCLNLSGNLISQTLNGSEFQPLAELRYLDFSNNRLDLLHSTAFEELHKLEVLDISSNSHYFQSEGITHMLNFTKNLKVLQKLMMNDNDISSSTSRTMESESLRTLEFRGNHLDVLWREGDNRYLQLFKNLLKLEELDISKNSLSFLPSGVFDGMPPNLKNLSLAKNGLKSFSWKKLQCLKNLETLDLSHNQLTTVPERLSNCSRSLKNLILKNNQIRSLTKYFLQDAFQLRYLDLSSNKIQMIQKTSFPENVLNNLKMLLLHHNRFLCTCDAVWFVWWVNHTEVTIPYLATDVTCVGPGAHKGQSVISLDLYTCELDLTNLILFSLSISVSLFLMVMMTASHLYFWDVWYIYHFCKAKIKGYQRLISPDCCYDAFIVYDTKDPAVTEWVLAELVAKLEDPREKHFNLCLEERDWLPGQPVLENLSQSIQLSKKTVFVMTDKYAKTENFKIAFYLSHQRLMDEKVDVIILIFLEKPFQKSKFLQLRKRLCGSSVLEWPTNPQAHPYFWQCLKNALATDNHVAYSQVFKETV

[6] = biological target: T2, human TLR9 expressed on HEK293 cells (human) (UniProt Q9NR96)
T2 sequence: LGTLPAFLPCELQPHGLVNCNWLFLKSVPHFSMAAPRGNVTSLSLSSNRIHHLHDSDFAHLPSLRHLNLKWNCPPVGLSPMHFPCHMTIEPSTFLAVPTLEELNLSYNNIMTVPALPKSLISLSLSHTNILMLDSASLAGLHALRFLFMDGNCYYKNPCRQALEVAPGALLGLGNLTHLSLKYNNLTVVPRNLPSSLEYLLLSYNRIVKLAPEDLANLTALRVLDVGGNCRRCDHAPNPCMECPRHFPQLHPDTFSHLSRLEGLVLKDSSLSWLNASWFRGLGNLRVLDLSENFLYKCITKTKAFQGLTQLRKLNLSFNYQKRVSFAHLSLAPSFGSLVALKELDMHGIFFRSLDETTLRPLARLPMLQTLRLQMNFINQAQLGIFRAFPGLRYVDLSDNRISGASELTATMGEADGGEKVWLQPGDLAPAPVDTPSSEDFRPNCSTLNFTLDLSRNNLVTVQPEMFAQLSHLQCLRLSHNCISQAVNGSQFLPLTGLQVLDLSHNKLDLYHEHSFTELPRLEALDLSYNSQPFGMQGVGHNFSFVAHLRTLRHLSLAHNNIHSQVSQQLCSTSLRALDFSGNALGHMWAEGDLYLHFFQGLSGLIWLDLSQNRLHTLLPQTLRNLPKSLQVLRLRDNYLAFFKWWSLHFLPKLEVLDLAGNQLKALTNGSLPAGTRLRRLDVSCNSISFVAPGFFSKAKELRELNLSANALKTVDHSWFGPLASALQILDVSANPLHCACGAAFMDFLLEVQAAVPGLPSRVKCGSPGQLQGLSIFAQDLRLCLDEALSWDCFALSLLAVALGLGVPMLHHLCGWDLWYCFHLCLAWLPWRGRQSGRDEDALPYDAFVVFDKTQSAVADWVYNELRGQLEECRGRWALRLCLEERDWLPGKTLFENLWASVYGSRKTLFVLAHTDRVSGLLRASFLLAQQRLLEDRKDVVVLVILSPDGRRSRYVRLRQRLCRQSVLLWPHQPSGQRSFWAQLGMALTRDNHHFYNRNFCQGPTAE

[7] = biological target: human TLR3 expressed on HEK293 cells (human) (UniProt O15455)

Chain of human TLR5 expressed on HEK293 cells (human) (O60602 21-858): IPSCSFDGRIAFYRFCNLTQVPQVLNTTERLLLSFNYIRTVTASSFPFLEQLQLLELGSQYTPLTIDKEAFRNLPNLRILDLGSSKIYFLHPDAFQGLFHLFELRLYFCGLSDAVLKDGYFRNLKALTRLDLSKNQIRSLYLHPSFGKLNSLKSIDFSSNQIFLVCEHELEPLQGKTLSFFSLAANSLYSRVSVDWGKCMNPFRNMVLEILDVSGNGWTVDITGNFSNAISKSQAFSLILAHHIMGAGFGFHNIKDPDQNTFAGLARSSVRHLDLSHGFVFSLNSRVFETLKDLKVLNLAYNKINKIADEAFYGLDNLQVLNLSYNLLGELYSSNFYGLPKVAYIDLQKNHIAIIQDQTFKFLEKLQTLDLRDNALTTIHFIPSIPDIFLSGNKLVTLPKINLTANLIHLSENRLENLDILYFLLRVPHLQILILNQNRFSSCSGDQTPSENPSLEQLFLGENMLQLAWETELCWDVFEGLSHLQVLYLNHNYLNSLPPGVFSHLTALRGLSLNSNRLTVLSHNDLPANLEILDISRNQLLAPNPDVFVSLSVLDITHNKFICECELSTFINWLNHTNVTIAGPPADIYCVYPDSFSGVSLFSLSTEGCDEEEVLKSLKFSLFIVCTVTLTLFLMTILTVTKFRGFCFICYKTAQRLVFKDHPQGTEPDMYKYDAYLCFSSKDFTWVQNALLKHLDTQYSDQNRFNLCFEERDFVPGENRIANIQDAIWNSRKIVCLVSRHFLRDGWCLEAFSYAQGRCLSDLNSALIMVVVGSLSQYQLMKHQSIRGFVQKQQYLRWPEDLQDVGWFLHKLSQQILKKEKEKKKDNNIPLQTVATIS
Chain of human TLR2 expressed on HEK293 cells (human) (O60603 21-784): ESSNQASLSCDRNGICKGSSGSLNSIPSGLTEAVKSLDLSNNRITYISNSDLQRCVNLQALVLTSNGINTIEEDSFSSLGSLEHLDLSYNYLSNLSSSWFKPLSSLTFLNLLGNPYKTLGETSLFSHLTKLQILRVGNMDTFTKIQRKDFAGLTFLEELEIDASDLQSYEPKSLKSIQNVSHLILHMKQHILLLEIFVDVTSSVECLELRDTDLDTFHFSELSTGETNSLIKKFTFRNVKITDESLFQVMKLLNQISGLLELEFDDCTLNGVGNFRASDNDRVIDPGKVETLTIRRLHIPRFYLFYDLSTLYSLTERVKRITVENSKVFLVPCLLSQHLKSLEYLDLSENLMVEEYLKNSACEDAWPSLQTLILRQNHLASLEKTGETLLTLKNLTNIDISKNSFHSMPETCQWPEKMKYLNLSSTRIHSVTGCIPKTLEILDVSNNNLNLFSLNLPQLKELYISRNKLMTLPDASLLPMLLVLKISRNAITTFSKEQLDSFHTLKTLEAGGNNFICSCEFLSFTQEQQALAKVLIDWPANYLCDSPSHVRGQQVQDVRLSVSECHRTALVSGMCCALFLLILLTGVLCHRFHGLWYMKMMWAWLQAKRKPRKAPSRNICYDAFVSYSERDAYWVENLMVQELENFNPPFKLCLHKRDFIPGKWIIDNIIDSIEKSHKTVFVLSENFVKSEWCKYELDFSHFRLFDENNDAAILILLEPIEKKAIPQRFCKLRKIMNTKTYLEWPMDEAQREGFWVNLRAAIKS

With “wild type YscF (from UniProt O68691 1-87)” as the substance, how does the SEAP reporter expression in HEK293 cells, screening 1 [1] read?
The SEAP reporter expression in HEK293 cells, screening 1 was 0.283.

And the SEAP reporter expression in HEK293 cells, screening 2 [1]?
Its SEAP reporter expression in HEK293 cells, screening 2 is 0.272.

What about the SEAP reporter expression in HEK293 cells, screening 1 [2] of the same substance?
The SEAP reporter expression in HEK293 cells, screening 1 was 0.136.

What about the SEAP reporter expression in HEK293 cells, screening 2 [2] of the same substance?
The SEAP reporter expression in HEK293 cells, screening 2 was 0.139.

What about the SEAP reporter expression in HEK293 cells, screening 1 [3] of the same substance?
The SEAP reporter expression in HEK293 cells, screening 1 was 0.096.

What about the SEAP reporter expression in HEK293 cells, screening 2 [3] of the same substance?
The SEAP reporter expression in HEK293 cells, screening 2 was 0.095.

What about the SEAP reporter expression in HEK293 cells, screening 1 [4] of the same substance?
Its SEAP reporter expression in HEK293 cells, screening 1 is 0.98.

And the SEAP reporter expression in HEK293 cells, screening 2 [4]?
The SEAP reporter expression in HEK293 cells, screening 2 was 0.861.

And the SEAP reporter expression in HEK293 cells, screening 1 [5]?
Its SEAP reporter expression in HEK293 cells, screening 1 is 0.095.

And the SEAP reporter expression in HEK293 cells, screening 2 [5]?
Its SEAP reporter expression in HEK293 cells, screening 2 is 0.094.

What about the SEAP reporter expression in HEK293 cells, screening 1 [6] of the same substance?
The SEAP reporter expression in HEK293 cells, screening 1 was 0.075.

What about the SEAP reporter expression in HEK293 cells, screening 2 [6] of the same substance?
The SEAP reporter expression in HEK293 cells, screening 2 was 0.074.

And the SEAP reporter expression in HEK293 cells, screening 1 [7]?
Its SEAP reporter expression in HEK293 cells, screening 1 is 0.1.

What about the SEAP reporter expression in HEK293 cells, screening 2 [7] of the same substance?
Its SEAP reporter expression in HEK293 cells, screening 2 is 0.093.
